Assay results published in the nanobody polyreactivity screen of Harvey et al. (2022).

Test: yeast display, Sf9 membrane polyspecificity reagent, FACS + sequencing; frameworks hold sequencing errors
Outline: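 In a synthetic yeast display library (Saccharomyces cerevisiae BJ5465), nanobody expression was induced with galactose for 36–48 hours. FACS gates were set low and high (top ~1%) using anti-HA fluorescence for expression and streptavidin fluorescence for binding of the Sf9 membrane reagent. Each polyreactivity label is drawn from the gate of origin.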

| Sequence | polyreactivity (PSR sort gate) |
| --- | --- |
| QVQLVESGGGLVQAGGSLRISFAASGSTFDIYVMGWYRQAPGKERELVAAISRVGNTSYADSVKGRFTISRDNAKNTVYLQMNSLKPEDKAVYYCAADAPSWYDRQYDYWGKGTQVTVSS | low polyreactivity |
| QVQLVESGGGSVQAGGSLRLSCAASGSTFQYYDMGWYRQAPGKERELVASITGSGDSTYYADSVKGRFTISRDNAKNTVYLQLNSLKPEDTAVYYCAAQNTWSGDYDYWGQGTQVTVSS | low polyreactivity |
| QVQLVESGGGLVQAGASLRLSCAASGHIFDSYAMGWYRQAPGKERELVAAITSGGSTYYADSVKGRFTISRDYAKNTVYLQMNSLKSEDTAVYYCATELGAAGDDSWGQGTQVTVSS | low polyreactivity |
| QVQLVESGGGLVQAGGSLRLSCAASGSTFALNAMGWYRQAPGKERELVAAITTGGHTYYADSVKGRFTISRDNAKNTDYLQMNSLKPEDTAVYYCATVFYFDYYYHYDYWGQGTQVTVSS | low polyreactivity |
| QVQLQESGGGLEQAGGSLRMSCAANGNIFDSDIVGRYRQAPGKKRELVASITDGGITNYADSVKGRFTISRDNAKYTVYLQMNSQNPVDTAVYYCAAIAYPDIPTYFDYDSDFFYWGQGTQVTVSS | high polyreactivity |
| QVKLVESGGGLVQAGGSLRLSCAASGFTFTWYVMGWYRQAPGKESELVAAISRSGGSKYYADSVKGRFTISRDNAKNTVYLQMNRLKPEDTAVYYCADVGTSSYDYWGQGTQVTVSS | high polyreactivity |
| QVQVVESGGGLVKAGGSLRLSCAASGGTFGNYAMGWYRQAPRKERELVAAINRSDGGTYYADSVKGRFTISRDNAKNTVYLQMNSLKPEDTAVYYCNAVDFYYDEPYDYWGQGTQVTVSS | low polyreactivity |
| QVQLVESGGGLVQAGGSLRLSCAASGSIFRFKAMGWYRQAPGKERELVAAISWSGGRTYYADSVKGRFTISRDNAKNTVYLQMNSLKPEDTAVYYCAARRSGLKVSPNFGYWGQGTQVTVSS | high polyreactivity |
| QVQLVESGGGLVQAGGSLRLSCAASGFNFQGNAMGWYIQAPGNERELVAAISSDGSTYYADSVKGRFTISRDNAKNTVELQMYSLKPEDTAVYYCAAEWWYYYPGYIITSYDYWGQGTQVTVSS | low polyreactivity |
| QVQLVESGGGLVQAGGSLRLSCAASGSIFAVYAMGWYRQAPGKERELVAASSTDYADSVKGRFTISRDNAKNTVYLQMNSLKPEDTAVYYCAKVGFGIPGGFYFWGQGTQVTVSS | low polyreactivity |
| QVQLVESGGGLVQAGGSLRLSCAASGATFRIDAMGWYREAPGKERELVAAIARGGTSTYYADSVKGRFTISRDNAKNTVNLQMNSLKPEDTAVYYCAKRDQDRTFPNGYWGQGTKVTVSS | high polyreactivity |
| QVQLVESGGGLVQAGGPLRLSCAASGYLFSYYAMGWSRQAPGKERELVATIDWGGGSTYYADSVKGRFTISRDNANNTVYLQLNSLKPEDTAVYYCSKDYYINKYGYRYDSWGQGTQVTVSS | low polyreactivity |
| QVQLVESGGGLVQAGGSLRLSCAASGRTFASYAMGWYRQAPGKERQLVAAITRGGNTNYADSVKGRFTISRDNAKNTVYLQMNSLNPEDTAVYYCATEGFVYSWLWEFEYWGQGTQVTVSS | low polyreactivity |
| QVQLVESGGGLDQAGGSLRLSCAASGLTFYYYAMGWYRQAPGKERELVAAITWRGVSTYYADSVKGRFTISRDNAKNTVYLQMNSLKPEDTAVYYCAAGWTSSRYDFWGQGTQVTVSS | high polyreactivity |
| QVQLVESGGGLVQAGGSLRLSCAASGIIFWYYAMGWYRQAPGKERELVAAISGSGGRTYYADSVKGRFTISRDNAKNTVYLQMNSLKPEDTAVYYCNALRAAFYHRARELDYWGQGTQVTVSS | high polyreactivity |
| QVQLGESGVGLVQAGGSLRLSCASSGRTLPVNAMGWYRQAPGKERELVAGISWGGDSTYYADSVKGRFTISRDNAKNSVYLQMNSLKPEDTAVYYCAASSSTWPGDFWGQGTQVTVSS | low polyreactivity |

| Sequence | polyreactivity (PSR sort gate) |
| --- | --- |
| QVQLVESGGGLVQAGGSLRLSCAASGRIFNYYAMGWYRQAPGKVTEFVASITSRGGTTYYADSVKGRFTISRDNAKNTVYLQMNCLKTEDTAVYFCAAVTRQGSRRSRMNYWGQGTQVTVSS | high polyreactivity |
| QVQLVESGGGLVQAGGSLRLTCAASGSILDSNAMGWYRQAPGKERELVSAITSGGSTYYADSVKGRFTISRDNAKNTVYLQMNSLKPEDTAVYYCAAAYLGYGAVQPSYEGGYWGQGTQVTVSS | low polyreactivity |
| QVQLVESGGGLVQAGGSLRLSCAASGSTFKWNAMGWYRQAPGKERELVAAINSGGSTYYADSVKGRFTISRDNAKNTVYLQMNSLKPEDTAVYYCAKKWAVRTPFRYGIRYDYWGQGTQVTVSS | low polyreactivity |
| QVQLVESWGGLVQAGGSLRLSCAASGLIFNYYAMGWYRQAPGKERELVAAITTGGGTYYADSVKGRFTISRDNAKNTVYLQMNSLKPEDTAVYYCAAVWGNRSRYPGHYYWGQGTQVTVSS | high polyreactivity |
| QVQLVESWGGLVQAGGSLRLSCAASGSTFRGNAMGWYRQAPGTERELVAAITRRGGSTYYADSVKGRFTISRDNAKNTVYLQMNSLKPEDPAVYYCAKVGRETEYDYWGQGTQVTVSS | high polyreactivity |
| QVQLVESGGGLVQAGGSLRLSCAASGRTLGGYAMGWYRQAPRKERELVAVITWNGGSTYADSVKGRFTISRDNAKNTVYLQMNSLKPVDTAVYYCAARQAYYAAFRTRYGYWGQGTQVTVSS | high polyreactivity |
| QVQLVESGGGLVQAGGSLRLSCAASGRTFRTYVMGWYRQAPGKERELVAAITWSGGRTYYADSVKGRFTISRDNAKNTVYLQMNSLKPEDTAVYYCATQPTYYLRSYGLDYWGQGTQVTVSS | high polyreactivity |
| QVQLVESGGGLVQAGGSLSLSCAASGFIFYRYAMGWYRQAPGKERELVAGISSRGGSTYYADSVKGRFTISRDNAKNTVYLQMNSLKPEDTAVYYCAKRPLTSNASQGDYWGQGTQVTVSS | high polyreactivity |
| QVQLVESGGGLVQAGGSLRLSCAASGNIFWWDAMGWYRQAPGKERELVAAITSDSTTYYADSVKGRFTISRDNAKNTVYLQMNSLKPEDTAVYYCAAYSYGGQGVDYGYWGQGTQVTVSS | low polyreactivity |
| QVQLVESGGGLVQAGGSLRLSCAASGSIFSSYSMGWYRQAPGKERELVAAISSGDSTYYADSVKGRFTISRDNAKNTVYLQMNSLKPEDTAVYYCAAPWYAWGQGTQVTVSS | low polyreactivity |
| QVQLVESGGGLVQAGGSLRLSCAASGFTLLGYAMGWYRQAPGKERELVAAISYSGVSTDYADSVKGRFTISRDNAKNTVYLQMNSLKPEDTAVSYCIAVSTDSFLQDYNYWGQGTQVTVSS | low polyreactivity |
| QVQLVESGGGLVQAGGSLRLSCAASGFAFSYYAMGWYRQAPGKEREFVASIDWSGGSTYYADSVKGRFTISRDNAKNTVYLQMNSLKAEDTAVYYCAAELDYFPGYDYWGQGTQVTVSS | low polyreactivity |
| QLQHVETGGGLVQAGGSLRLSCAASGRIFIRNHMGWYRQAPGKERELVAVITRSGGRTYYADSVKGRFTISRDNANNTVYLQMNRVKPEDTAVYYCAKRQAFKQATYDYWGQGTQVTVSS | low polyreactivity |
| QVQLVESGGGLVQAGGSLRLSWAAYGRIFLTNAMGWYRQAPGKERELVAAITSGGSTYYADSVKGRFTISRDNAKNTVYLQMNSLKPEDTAVYYCKADTDRYWPYEYDYWGQGTQVTVSS | low polyreactivity |
| QVQLVESGGGLVQAGGSLRLSCAASGRTFSYYAMGWYRQAPGKERELVAAIRRSSGTTYYADSVKGRFTISSDNAKNTVYLQMNSLKPEDTAVYYCNARSRRASIKRDYWGQGTQVTLSS | high polyreactivity |
| QVQLVESGGCLVQAGGSLRLSCAASGRSFDKYTMGWYRQAPGKERELVAAISTRGGSTYYADSVKGRFTISRDNAKNTVYLQMNSLKPEDTAVYYCATVPRPKAYDYWGQGTQVTVSS | high polyreactivity |
